Measured values: patent US20260286413A1, “HYALURONAN SYNTHESIS, SECRETION AND LENGTH CONTROL” (UNIVERSITY OF VIRGINIA, priority 2023, published 2026)
One block for each molecule: values may come before it.

Tests used:
[1] = test system: Hyaluronic acid synthesis; conditions: cited from earlier work
[2] = biological target: T1, X1HAS1 (Xenopus laevis, UniProt P13563); assay: Substrate turnover rate quantification (UDP release, enzyme-coupled assay); assay type: biochemical
T1 construct: dodeca-histidine (His12) (N); made in house; host or cells: Spodoptera frugiperda Sf9 cells (baculovirus)
T1 sequence (P13563 1-588): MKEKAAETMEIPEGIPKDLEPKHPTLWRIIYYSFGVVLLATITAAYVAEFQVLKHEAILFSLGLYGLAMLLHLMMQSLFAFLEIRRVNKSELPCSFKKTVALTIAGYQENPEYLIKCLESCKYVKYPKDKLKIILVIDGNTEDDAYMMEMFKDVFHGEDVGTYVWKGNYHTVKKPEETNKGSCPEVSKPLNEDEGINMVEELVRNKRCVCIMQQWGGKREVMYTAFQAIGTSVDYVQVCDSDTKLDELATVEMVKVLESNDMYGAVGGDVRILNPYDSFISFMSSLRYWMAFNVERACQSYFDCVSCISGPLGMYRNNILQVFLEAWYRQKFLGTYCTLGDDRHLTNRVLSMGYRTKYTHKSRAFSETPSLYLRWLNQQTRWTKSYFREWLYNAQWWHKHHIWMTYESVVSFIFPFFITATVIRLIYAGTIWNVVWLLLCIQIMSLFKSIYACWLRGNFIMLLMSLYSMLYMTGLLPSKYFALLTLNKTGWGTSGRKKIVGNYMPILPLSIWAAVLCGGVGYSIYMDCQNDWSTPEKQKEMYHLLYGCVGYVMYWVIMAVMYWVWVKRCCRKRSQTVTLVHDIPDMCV
Method: UDP release during HA synthesis was quantified using an enzyme-coupled assay as previously described (10, 13). Depletion of NADH was monitored at 340 nm every 60 s for 3 hours at 37° C. in a SpectraMax instrument. The raw data was processed in MS Excel and a linear phase of each reaction was determined. The rate of NADH depletion was converted to pmoles of UDP released using a UDP standardized plot (FIG. S1C) for Michaelis-Menten constant determination using GraphPad Prism. For substrate turnover rate quantification of X1HAS1 mutants, pmoles of released UDP were converted to the number of corresponding substrate turnovers per molecule of X1HAS1, per minute. Data is presented relative to wild type activity. All experiments were performed in four to eight replicates and error bars represent standard deviation from the means.
HAS transfers the UDP-activated glycosyl unit (the donor sugar) to the non-reducing end of the nascent HA polymer (the acceptor sugar). This reaction generates UDP and elongated HA as reaction products (FIG. 1A). Catalytic activity can be assessed by monitoring the release of UDP in an enzyme-coupled reaction, as previously described (10, 13), or quantifying HA, either radiometrically or by dye staining following electrophoresis.

[3] = biological target: T1, X1HAS1; assay: Electrophoretic HA size determination (agarose gel, Stains-all) of in vitro synthesized HA; assay type: biochemical
Method: To assess the size of HA synthesized by X1HAS1, similar reaction conditions were applied to the ones described above. […] […] Controls were carried out by digesting the synthesized polymers with hyaluronidase. Synthesis reactions were mixed with SDS-PAGE loading dye and applied to a 1% agarose gel (Ultra-pure agarose, Invitrogen) casted in an Owl B2 system (ThermoFisher). […] After the run, the gel was equilibrated in 50% ethanol for 1.5 h and subjected to staining in 0.05% Stains-all (Sigma) in 50% ethanol overnight under light-protection. Post-staining background was reduced by soaking the gel in 20% ethanol for 3-7 days in the dark. The migration of the synthesized HA species was compared to HA standards from Streptococcus equi (Sigma), as well as enzymatically generated ladders: HA LoLadder and HA HiLadder (Hyalose).

[4] = test system: HAS isoforms; conditions: cited from earlier work

Molecule: Cc1cc(=O)oc2cc(O)ccc12 [4-methylumbelliferone]
effect on hyaluronic acid synthesis [1]: inhibited

Molecule: CC(=O)N[C@H]1[C@@H](OP(=O)(O)OP(=O)(O)OC[C@H]2O[C@@H](n3ccc(=O)[nH]c3=O)[C@H](O)[C@@H]2O)O[C@H](CO)[C@@H](O)[C@@H]1O [UDP-GlcNAc, reference compound]
Km ([2]; one substrate titrated at saturating concentration of the other, real-time quantification of released UDP, read-out: Michaelis-Menten constant): ~470 µM

activity reduction when manganese is used instead of magnesium as cofactor ([2]; Mn2+ instead of Mg2+): about 30%
HA production with Mn2+ ([3]; agarose gel assay, Mn2+ versus Mg2+): reduces HA production slightly
catalytic rate suggested by electrophoretic analysis versus rate by UDP quantification ([3]; based on ~1.6 MDa produced within 90 min): about 2 times
size of HA polymers with sustained high substrate ([3]; both substrates (2.5 mM) supplemented at 2, 4, 6 h, UDP converted to UTP): > 1.6 MDa
size of HA polymers synthesized at completion ([3]; in vitro synthesis, relative to HA marker): > 1.6 MDa
HA product length ([3]; produced within 90 min): ~ 1.6 MDa
change of HA size with one substrate limiting ([3]; substrate replenishing, UDP-GlcNAc at 0.1-1 mM): no increase in HA size
maximum HA extension ([3]; without UDP removal, 2.5 mM of both substrates): ~1.6 MDa
B1: X1HAS1: Xenopus laevis HA synthase isoform 1, wild type (Uniprot P13563, SEQ ID NO: 9) (protein, UniProt P13563 1-588, looked up)
Hyaluronan synthase 1: T1 sequence (P13563 1-588)
overall catalytic rate ([2]; UDP release): approximately 30 substrate turnovers per minute

B2: HAS2: human HA synthase isoform 2 (protein, UniProt Q92819 1-552, looked up)
Hyaluronan synthase 2: MHCERFLCILRIIGTTLFGVSLLLGITAAYIVGYQFIQTDNYYFSFGLYGAFLASHLIIQSLFAFLEHRKMKKSLETPIKLNKTVALCIAAYQEDPDYLRKCLQSVKRLTYPGIKVVMVIDGNSEDDLYMMDIFSEVMGRDKSATYIWKNNFHEKGPGETDESHKESSQHVTQLVLSNKSICIMQKWGGKREVMYTAFRALGRSVDYVQVCDSDTMLDPASSVEMVKVLEEDPMVGGVGGDVQILNKYDSWISFLSSVRYWMAFNIERACQSYFGCVQCISGPLGMYRNSLLHEFVEDWYNQEFMGNQCSFGDDRHLTNRVLSLGYATKYTARSKCLTETPIEYLRWLNQQTRWSKSYFREWLYNAMWFHKHHLWMTYEAIITGFFPFFLIATVIQLFYRGKIWNILLFLLTVQLVGLIKSSFASCLRGNIVMVFMSLYSVLYMSSLLPAKMFAIATINKAGWGTSGRKTIVVNFIGLIPVSVWFTILLGGVIFTIYKESKRPFSESKQTVLIVGTLLYACYWVMLLTLYVVLINKCGRRKKGQQYDMVLDV
HA polymer size [4]: several megadaltons

B3: HAS1: human HA synthase isoform 1 (protein, UniProt Q92839 1-578, looked up)
Hyaluronan synthase 1: MRQQDAPKPTPAACRCSGLARRVLTIAFALLILGLMTWAYAAGVPLASDRYGLLAFGLYGAFLSAHLVAQSLFAYLEHRRVAAAARGPLDAATARSVALTISAYQEDPAYLRQCLASARALLYPRARLRVLMVVDGNRAEDLYMVDMFREVFADEDPATYVWDGNYHQPWEPAAAGAVGAGAYREVEAEDPGRLAVEALVRTRRCVCVAQRWGGKREVMYTAFKALGDSVDYVQVCDSDTRLDPMALLELVRVLDEDPRVGAVGGDVRILNPLDSWVSFLSSLRYWVAFNVERACQSYFHCVSCISGPLGLYRNNLLQQFLEAWYNQKFLGTHCTFGDDRHLTNRMLSMGYATKYTSRSRCYSETPSSFLRWLSQQTRWSKSYFREWLYNALWWHRHHAWMTYEAVVSGLFPFFVAATVLRLFYAGRPWALLWVLLCVQGVALAKAAFAAWLRGCLRMVLLSLYAPLYMCGLLPAKFLALVTMNQSGWGTSGRRKLAANYVPLLPLALWALLLLGGLVRSVAHEARADWSGPSRAAEAYHLAAGAGAYVGYWVAMLTLYWVGVRRLCRRRTGGYRVQV
HA polymer size [4]: several megadaltons
